In test [1] the test system is p62, LC3-II/LC3-I, p70S6K1, ULK1. Nature of the test: Western blotting of autophagy markers in brown adipose tissue. Particulars: 600 U once a week, 4 weeks. In kind it is in vivo, mouse. From the text:
FIG. 49 illustrates the changes of relative p62 protein levels, detected by western blotting, at different days of a 7-day intermittent fasting cycle in the brown adipose tissue (BAT) of HFD-induced C57BL/6J DIO male mice administered with 600 U N-ABD094-rhArg (SEQ ID NO: 50) once a week for 4 weeks. The p62 protein is a receptor for cargo destined to be degraded by autophagy. The marked reduction in p62 levels from Day 1 to Day 3 indicated enhanced autophagy that coincided with the entry into the fasting phase. The increase in p62 levels from Day 5 to Day 7 implicated a decrease in autophagy, which coincided with the entry into the refeeding phase. *P<0.05, one-way ANOVA followed by Bonferroni test. Data are expressed as mean±SEM, n=4 for each group.
Ratio of LC3II/LC3-I was used as a marker of autophagy and semiquantified by western blotting. Chloroquine (an autophagy inhibitor, CQ) were injected 5 hr to accumulate autophagosomes in the BAT before tissue collection. *P<0.05, one-way ANOVA followed by Bonferroni test. Data are expressed as mean±SEM, n=4 for [HFD (vehicle)] and [HFD (rhArg)] group without CQ; n=3 for CQ-treated group.
Data are expressed as mean±SEM, n=4 each group.
The p62, also known as SQSTMl/sequestome 1, serves as a link between LC3B and ubiquitinated substrates and is efficiently degraded by autophagy. Thus, the level of p62 proteins can be used to monitor autophagic flux. For example, autophagic suppression correlates with an increased p62 level, and similarly, autophagic activation correlates with a decreased p62 level. […] Besides, the expression level of autophagy marker LC3B was detected in presence or absence of CQ (FIG. 50). The conversion of LC3B -I to the lower migrating form, LC3B-II, is used as an indicator of cellular autophagy level. The higher the LC3B-II/LC3B-I ratio indicates the higher incidence rate of autophagy in the tissue.
Background: A western blot detects proteins with antibodies after separation by electrophoresis.

The subject of the next test is LC3-II/LC3-I. Description: Autophagic flux in liver, LC3-II/LC3-I western blot with chloroquine. The test is classed as in vivo, mouse. Particulars: DIO male mice on HFD; 600 U once a week, 4 weeks; Day 3 of cycle. How it is done: Ratio of LC3-II/LC3-I proteins was used as a marker of autophagy and was semiquantified by western blotting. Chloroquine (an autophagy inhibitor, CQ) was injected 5 hr to accumulate autophagosome in the liver before tissue collection. *P<0.05, one-way ANOVA followed by Bonferroni test. Data are expressed as mean±SEM, n=3 for each group.
Autophagy is involved in cell growth, survival, development and death. Impaired autophagic flux has been linked to a variety of human pathophysiological processes, including neurodegeneration, cancer, myopathy, cardiovascular and immune-mediated disorders. There is a growing need to identify and quantify the status of autophagic flux in different pathological conditions. Autophagy is a highly dynamic and complex process that is regulated at multiple steps. Autophagic flux can be detected by LC3-II turnover using western blot analysis in the presence and absence of lysosomal degradation inhibitors, chloroquine (CQ). If autophagic flux is occurring, the level of LC3-II will increase in the presence of a lysosomal degradation inhibitor because the transit of LC3-II through the autophagic pathway will be blocked.

[2] abbreviates: DIO male mice on HFD, Day 3 of cycle.

“Also recorded” adds a separate entry of the source.

B1: N-ABD094-rhArg: recombinant human arginase fused to albumin binding domain ABD094 (SEQ ID NO: 50); engineered long-acting arginine-depleting enzyme (protein)
chain: MHHHHHHDEAVDANSLAEAKEAANAELDSYGVSDFYKRLIDKAKTVEGVEALKDAILAALPSGSNNNNNNGSGGMSAKSRTIGIIGAPFSKGQPRGGVEEGPTVLRKAGLLEKLKEQECDVKDYGDLPFADIPNDSPFQIVKNPRSVGKASEQLAGKVAEVKKNGRISLVLGGDHSLAIGSISGHARVHPDLGVIWVDAHTDINTPLTTTSGNLHGQPVSFLLKELKGKIPDVPGFSWVTPCISAKDIVYIGLRDVDPGEHYILKTLGIKYFSMTEVDRLGIGKVMEETLSYLLGRKKRPIHLSFDVDGLDPSFTPATGTPVVGGLTYREGLYITEEIYKTGLLSGLDIMEVNPSLGKTPEEVTRTVNTAVAITLACFGLAREGNHKPIDYLNPPK
modifications: N-ABD094-rhArg, Synthesized in the Lab
notes: engineered long-acting arginine-depleting enzyme
B1: the “p62 protein level in BAT” value in test [1] (DIO C57BL/6J male mice on HFD, days of the 7-day cycle) was “significant decrease in p62 level at Day 3 and Day 5”. In test [1] (setting [2]), the “LC3-II/LC3-I ratio in BAT upon chloroquine injection” value is “dramatic increase upon injection of CQ”, the “ULK1 in BAT” value is “stimulation” and the “p70S6K1 in BAT” value is given as “significant suppression”. Besides, the “LC3-II/LC3-I ratio in liver upon chloroquine injection (autophagic flux)” value with LC3-II/LC3-I is recorded as “dramatic increase; also recorded: enhancement of autophagic flux”.

(Values after US20210162028A1, “Methods for Inducing Intermittent Fasting and Modulating Autophagy” (The Hong Kong Polytechnic University, priority 2019, published 2021).)
